Laboratory results published in US20040172671A1, “Transgenic plants protected against parasitic plants” (priority 2001, published 2004).

Columns and labels:
[1] = tested on: several bacteria, including plant pathogenic bacteria; conditions: SLP secreted from yeast cells (Aly et al, 1999); cited from earlier work
[2] = tested on: Orobanche aegyptiaca seeds; experiment: Petri dish assay: effect of SLP on O. aegyptiaca seed germination and radicle elongation; format: in vivo
Experimental: The effect of the direct application of the lytic toxin Sarcotoxin IA (SLP) to seeds of the parasitic plant O. aegyptiaca was assayed. SLP was obtained by production in S. cerevisiae, and applied to seeds during both preconditioning and germination stages as follows: Yeast strain Y426-MATa yeast cells transformed with a yeast shuttle vector-pFL61 to express the sarcotoxin IA were cultured in -URA liquid media at 30° C. for 72 h as described in Aly et al. (1999). The cultures were then centrifuged for 5 min at 4000 g and the supernatant collected for SLP assay. Quantitative evaluation of the SLP concentration present in the growth media was obtained by Western blot analysis. The effect of SLP on O. aegyptiaca seeds was determined in a Petri dish assay. Parasite seeds were surface-sterilized, dispersed on Whatman GF/A glass-fiber (0.7 cm diam.), covered with the same filter, and placed in a Petri dish. […] After incubation in dark at 26° C. for 7 days, seeds were rated for radicles damage.

[3] = SLP 10 μM applied at germination (three days after GR24)
[4] = SLP 20 μM applied at germination
[5] = SLP 20 μM applied at preconditioning
[6] = SLP 30 μM applied at germination
[7] = SLP 30 μM applied at preconditioning
[8] = SLP 40 μM applied at germination
[9] = SLP 40 μM applied at preconditioning

B1: sarcotoxin IA (protein, listed as Sarcophaga peregrina)
chain: MNFQNIFIFVALILAVFAGQSQAGWLKKIGKKIERVGQHTRDATIQGLGIAQQAANVAATARG
cytotoxic effect against bacteria [1]: potent cytotoxic effect
Gemination (% of control) [2, 3]: 80 ± 6 % of control
Radicle length (% of control) [2, 3]: 65 ± 5 % of control
Radicle length (% of control) ([2]; SLP 10 μM applied at preconditioning (mixed with GR24)): 65 ± 6 % of control
Gemination (% of control) ([2]; SLP 10 μM applied at preconditioning (mixed with GR24), 7 days, 26° C., dark): 76 ± 3 % of control
Gemination (% of control) [2, 4]: 76 ± 8 % of control
Radicle length (% of control) [2, 4]: 47 ± 3 % of control
Gemination (% of control) [2, 5]: 69 ± 6 % of control
Radicle length (% of control) [2, 5]: 52 ± 2 % of control
Gemination (% of control) [2, 6]: 43 ± 7 % of control
Radicle length (% of control) [2, 6]: 33 ± 4 % of control
Gemination (% of control) [2, 7]: 6 ± 1 % of control
Radicle length (% of control) [2, 7]: 12 ± 8 % of control
Gemination (% of control) [2, 8]: 36 ± 2 % of control
Radicle length (% of control) [2, 8]: 4 ± 1 % of control
Gemination (% of control) [2, 9]: 0 % of control
Radicle length (% of control) [2, 9]: 0 % of control
radicle elongation and seed germination of the parasite ([2]; presence of SLP, in words): significantly reduced
